Test results published in the nanobody polyreactivity screen of Harvey et al. (2022).

test: yeast display, Sf9 membrane polyspecificity reagent, FACS + sequencing; frameworks hold sequencing errors
Procedure, shortened: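 Galactose induction of a Saccharomyces cerevisiae BJ5465 synthetic nanobody display library ran 36–48 hours. The cells were then stained for 1 hour at 4 °C with 10% biotinylated, detergent-solubilized Sf9 membrane reagent, pulled down on streptavidin microbeads and FACS-sorted into low and high (top ~1%) gates on expression and reagent-binding fluorescence. Labels for polyreactivity follow the gate of origin.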

Sequence | polyreactivity (PSR sort gate)
QDQHVESGGGVVQAGGSRRLSCAASGFTISSYAMGWYRPAPGKERHLVAAITWSGSRTYYADSVKGRFTISRDNAKNTVYLQMNSLKPEDTAVYYCAATYRSYRGVRYYLGQGTQVTVSS | high polyreactivity
QDQHVESGRGLVQEGGSLRLSSPPSGRTIYEYAIGWYRQAPGKETQLVAGITTSGGSTYYAVSVKGRFTISRDNAKNTVYLQMNSLKPEDTAVYYCAKYRKSRGDNDSWGQGTQVTVSS | high polyreactivity
QDQIVDSRGVLVQEGGSLGLSCAASGLTIYSYAMGFSRQAPRKERELVATITNGDTTTYAETVKARFTISRDNAKNNVIFQFNILKPEDTAVYYCAQHISPGYDEYDYWGQGTQVTVSS | low polyreactivity
QDQLEESGGGLVQEGGSLRIICDAYRSTFYANTMGWYRQSTGKERELVATISIDGSTNYADSVKGRFTFSRDYAKNTVYLQMNSLKPEDTAVYYCNADVYSVLYGYWGQGTQVSVSS | low polyreactivity
QDQLEESGVGLLQAGGSLRLSCAASGNTFFVNDMGWYRHAPRKERELLAVISINGDSTFYADSVKGRFTISRDNAKNTVYLQMNSLKPEDTAVYYCAADFRRVFCKYSYYLYFEFDYWGQGTQVTVSS | low polyreactivity
QDQLGESGGGLVQAGGSLRLSCAAAGSIFGTNAMGWYRQAPGKEREFVATISSRTGSTYYADSVKGRFTISRDNAKNRVYLQMNSLKPEDPAVYYCAAVRWYGKYDDWGQGTQVTVSS | low polyreactivity
QDQLGESGGGLVQAGGSLRLSCAASGSTFRYYAMGWYRQAPGKERELLAAITSSGGSTYYADSVKGRFTISRDNAMNTVYLQMNSLNPEDTAVYYCAVAVKNWVKLNYWGQGTQVTVSS | high polyreactivity
QDQLLESGGGLGQAGGSLRLSCAASGITFGRYAMGWYRQAPGKERELVAAITWGGGSTYYADSVKGRFTISRDNAKNTVYLQMNSLKPEDTAVYYCAARSYGRWFGGYDSWGQGTQVTVSS | high polyreactivity
QDQLLESGGGLVQAGGSLRLSCAASGRTFRYYTMGWYRQAPGKEREFVAAISSTGGTYYADSVKGRFTISRDNAKNTVYLQMNSLKPEDTAVYYCAATFIQFVVNVELYDYDYWGQGTQVTVSS | low polyreactivity
QDQLVDSGGCLVQAGGSLSLSCAASGNTFNIYAMGWYRQAPGKEREFVAAITVSDTSTYYADSVKGRFTISRDNAKNTVYLKMHSLKPEDTSVYYCNADWWCTYDYYYWGQGTQGTVSS | low polyreactivity
QDQLVDSGGGLDQAGGSLRLSCAATGRTIGINAMGWYRQAPGKERELVAVISFGDGGTYSADSVKGRFTISRDNAKNTVYLQMNSLKPEDTAVYYCATDYQSTSVWGGHFVINPFDYWGQGTQVTVSS | low polyreactivity
QDQLVDSGGGLVQAGGSLRFSCAASGFIFRFNAMGWYRQAPGKERELVADIRWSSGSTYYADSVKGRYTISRDNAKNTVYLEMNSLKPEDTAVFYCAVTYLRVHYKFTPFDYWGQGTQVTVSS | low polyreactivity
QDQLVDSGGGLVQAGGSLRLSCAASGRISGYYAMGWYRQAPGKERELVASITYRGGSTYYADSVKGRFTISRDNAKNTVYLQINSLKPEDTAVYSCNFRYRPNRGSIGQPNSGKNWYDYWGLGTQVTVSS | high polyreactivity
QDQLVDSGGGLVQAGGSLRLSCAASGRTFYTYAMGWYRQAPGKEREFVARISKRGGGTYYADSVKGRFTISRENAKNTVDLQMNSLIPEDTAVYYCNAGVPSAMDYWGQGTQLTVSS | high polyreactivity
QDQLVDSGGGLVQAGGSLRLSCAASGSIFYLYAMGWYRQAPGKEREFVAAITWRGGSTYYADSVKGRFTISRDNAKNTVYLQLNSLKPEDTAVYYCGAKLPRVYGYGFEYWGQGTQVTVSS | low polyreactivity
QDQLVDSGGGLVQAGGSLRLSCAASGSIYDPYAMGWYRQAPGKERELVATIDWDDASTYYADSVKGRFTISRDNAKNTVYLQMNSLKPEDTAVYYCATRDRAGYYYWGQGTQVTVSS | high polyreactivity
QDQLVDSGGGLVQAGGSLRLSCASSGGTFSYYTMGWYRQAPGKERELVARISKNGGRTYYADSVKGRFTISRDNAKNTVYLQLNSLKPEDTAVYYCNAAGRTYDFSGGRTMEYWGQGTQVTVSS | high polyreactivity
QDQLVDSRGGLVKAGGSLRLSCSASGRTFYYYAMGWSRQAPGQERELVADINTRVTSTYYADSVKGRFTISRDNAKNTVYLQMNSLKPEDTGVYYCAVDPYGDSWEDWLRNYYYGYDYWGQGTQVTVSS | low polyreactivity
QDQLVDSRGGLVQAGGSLRLSCAASGLIFRSYAMGWSRQAPGKERELVAAITDLFWSTYYADSVKGRFTISRDYAKNTVYLQMNSLKPEDNAVFYCARDDWVYTNVEMDYWGQGTQVTVSS | high polyreactivity
QDQLVESAGGLVQAGGSLRLSCAASGRTFRAYAMGWYRQAPGKAMELVAAISRNGGTTYYADSVKGRFTMSRDNAKNTVYLQMNSLKPEDTAVSYCNARAGTKTGLKSDYWGQGTQVTVSS | high polyreactivity
QDQLVESCGCLVQAGGSLRLSCASSGSTFGTYAMGWYRQAPGKERELVAAISSGDSTTYADSVKGRFTISRDNAKNTVYFQRNSLKQVDTAVYYCAARTFLMRNGGYNYWGEGTQVTVSS | low polyreactivity
QDQLVESCGGLVQAGGSLRLICAASGITFRYNAMGWYRQAPGKERELVAAITFSGGSTYYADSVKGRFTISRDNAKNTVYLQMISLKPEDTAVYYCAARKARPPFPHPFDYYWGQGTQVTVSS | low polyreactivity

Sequence | polyreactivity (PSR sort gate)
QDQLVESGAGLVQAGGSLRLSCAASGRIFTPYAMGGYRHAPRKERELVAVIRDGSTYFADSVKGRFTISRDNAKNTVYFQMKSLKPEETAGYYCRYDIWVWWSGAYDYWGQGTQVTVSS | low polyreactivity
QDQLVESGGALVQAGGSLLLSCAASGITFGDHAMGWYRQAPGKEWELFAAISWSGDRTFYADSVTGRFTISRDNAKNTVSLQMNSLNPADTAVYYCNAEIGWHNEGRLSTYDYWGQGTQVTVSS | low polyreactivity
QDQLVESGGCLVQAGGSLRLSCAASGSIFKRNAMGWYRQAPGKERELVASISWSGTRTYYADSVKGRFTISRDNAKNTVYLQMNSLKPEDTAVYYCARRIYGGHPSQSTQGDFYYWGHGTQVTVSS | high polyreactivity
QDQLVESGGGIVQAGGSLRLSCAASGRIFYGYAMGWYRQAPGKERELVAAITSRGTSTYYADSVKGRFTISRDNAKNTVYLQMNSLKPEDTAVFYCNAAYGRSFYSKVFSYNYWGQGTQVTVSS | high polyreactivity
QDQLVESGGGIVQAGVSLRLSCAANGIIFDYYAMGWYRQAPGKERELVAAINRNGGTTYYADSVKGRFTISRDNAKNTVYLQMICLKPEDTAVYYCAAVDFGWSTYYYWGQGTQVTVAS | high polyreactivity
QDQLVESGGGLDQARGSLRLICAASGSTFKYYAMPSYRQAPGKERELVAAISWSGGNTYYADSVKGRFTISRENAKNTDYLQMNCLKPEDTAVYYCAADTKVGNGIKFDYWGQGTHVTVSS | high polyreactivity
QDQLVESGGGLLQAGGSLRLSCAASGRTFRYYAMGWYRQAPGKERELVAAISWSGSSTYYADSVKGRFTISRDNAKNTVYLQMNSLKAEDTAVYDCNAKGVRGKYFDYSRVSAYDYWGQGTQVTVSS | low polyreactivity
QDQLVESGGGLLQAGGSLSLSCAASGFTIYGYAMVWYRQAPGKERELVAAITNSGGRTYYADSVKGRFTISRDNAKNSVYLQMKSLKPEFTAVYFCAVDDLRGYDYWGQGTQVTVSS | low polyreactivity
QDQLVESGGGLVEAGGSLRLSCAASGITFSWYAMVWKRQAPGKEREFVAAISPGGTSTYYADSVKGRFTISRDNAKKTVYLQMNSLKPEDTAFYYCAVQWLYPYDYWGHGTQVTVSS | high polyreactivity
QDQLVESGGGLVHAGGSLRLSCAASGLTFGRNAMGWYRQAPGKERELVAAISRSGGRTSYADSVKGRFTISRDNAKYTVYLQMHSLKPEDTAVYYCAARSDVFTHDYWGQGTQVTVSS | high polyreactivity
QDQLVESGGGLVHAGGSLRLSCAASGSTFSIYAMGWYRQAPGKERELVAAIPYSGGSTYYADSVKGRFTISRDNAKNTVYLQMHSLKPEDTAVNYCAAEVYDSRWWYSGATDDYWGQGTQVSVSS | high polyreactivity
QDQLVESGGGLVQAAGSLRLSCAASGSTFLGNALGWYRQARGKERQLVAAISGRGGSTYYADSVKGRFTISRDNAKNTVYVQMNSLKPEDTAVYYCNAVGRRVRTWHDYDYWGKGTQVTVSS | high polyreactivity
QDQLVESGGGLVQAGASLRLSCAASGFTFHNKFKGWYRQAPGKERELVATISKSGGSTYYADSVKGRFTISRDYAKNTVNLQMNSLKPEDTAVYYCARRYRDYGRYGYWGQGTQVTVSS | high polyreactivity
QDQLVESGGGLVQAGCSLRLSCAASGSTFHLNAMGWYRQAPGKERELVAAITWSGGSTYYADSVKGRFTISRDNAKNTVYLQMNSLKPEDTAVYYCNAGLGKFPVKGGRRYRLDYWGQGTQVTVSS | low polyreactivity
QDQLVESGGGLVQAGGRLRLSCAASGSIFNYYTMGWYRQAPGKETELVAAITWSGGRTYYADSVKGRFTISRDNAKNTVYLQMNSLKPEDTAVYYCNAVAYKPGGGEDFESWGQGTQVTVSS | high polyreactivity
QDQLVESGGGLVQAGGRLRLSCAASGSTFRRYAMGWYRQAPGTERDWVAAISGGGGSTYYADSVKGRFTISRDNAKNTVYLQMNSLKPEDTAVYYCNIPFPYYPDGPNGYDYWGQGTQVTVSS | low polyreactivity
QDQLVESGGGLVQAGGSHRLSCAASGRIFARNAMGWYRQAPGKERELVATIRVGGGSTYYADSVKGRFTISRDNAKNTVYLQLNSLKPEDTAVYDCAVRQLYSYPGDRRGYYWGQGTQVTVSS | low polyreactivity
QDQLVESGGGLVQAGGSIRLSCAASGSILRSNALGWYRQAHVQERELVAAITFNGGSTYADSVKGRFTISRDNAKNNVYLQMNSLKPVDTSVSYCATGDGPCLFDYWGQGTQVTVSS | low polyreactivity
QDQLVESGGGLVQAGGSIRLSCAASGYIFLLYDMGWYRQAPGKERDMVATITSGGGTYYADSVKGPFTISRDNAKNTVYLQMNSLKPEDTAVYYCNADLYRWTGRSYWDKHGYWGQVTQVTVSS | low polyreactivity
QDQLVESGGGLVQAGGSLRISCAASGITLEYNAMGGYRQAPGKERELVATIRSGGSTNYADSVKVRFTISRDNANNTVYLQMNSLKPEDTAVYYCAANHNTEYDWGQGTQVTVSS | high polyreactivity
QDQLVESGGGLVQAGGSLRISCAASGSIFDVNAMGWYRQAPGKERELVAAISDSGGSTYYADSVKGRFTISRDNAKNTVYLEMNSLKPVDTAVYYCNADWSWYNYYDFDYWGQGTQVTVSS | low polyreactivity
